The supplement of paper PMC9112550, “Optimization of the antimicrobial peptide Bac7 by deep mutational scanning” (BMC Biology, 2022)

Test system: Escherichia coli TOP10
Test: shrunken log2 fold change of peptide-encoding DNA abundance (4.5 h post-induction vs induction); higher = less antimicrobial activity (less host growth inhibition)
Settings: time post-induction: 4.5 h; library: site-saturation at positions 5, 18, 19, 20
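Also: peptides expressed intracellularly from a pBAD plasmid library in pooled LB shake-flask culture, induced with 0.3% L-arabinose, DNA abundance read by NGS, three biological replicates, DESeq2 with apeglm shrinkage.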

Sequence | shrunken log2 fold change
RRIRPRPPRLPRPRPRPGDLPRP | 0.076
RRIRKRPPRLPRPRPRPRNRPRP | -0.139
RRIRCRPPRLPRPRPRPNTEPRP | -0.161
RRIRLRPPRLPRPRPRPPEHPRP | 0.188
RRIRTRPPRLPRPRPRPWLWPRP | 0.202
RRIRRRPPRLPRPRPRPMPRPRP | 0.811
RRIRGRPPRLPRPRPRPTAPPRP | 0.71
RRIRQRPPRLPRPRPRPLLPPRP | 0.0127
RRIRRRPPRLPRPRPRPFGQPRP | -0.336
RRIRLRPPRLPRPRPRPFIKPRP | -0.66
RRIRHRPPRLPRPRPRPEPSPRP | 0.137
RRIRNRPPRLPRPRPRPSDVPRP | -1.29
RRIRGRPPRLPRPRPRPFEYPRP | 0.0664
RRIRVRPPRLPRPRPRPQFIPRP | -0.128
RRIRHRPPRLPRPRPRPSNLPRP | -0.289
RRIRHRPPRLPRPRPRPPNIPRP | -0.157
RRIRQRPPRLPRPRPRPGSLPRP | 0.143
RRIRCRPPRLPRPRPRPGSQPRP | 0.0392
RRIRGRPPRLPRPRPRPCGCPRP | 1.09
RRIRIRPPRLPRPRPRPLDNPRP | 0.0097
RRIRKRPPRLPRPRPRPVVGPRP | 0.686
RRIRKRPPRLPRPRPRPLMVPRP | 0.0242
RRIRMRPPRLPRPRPRPFVRPRP | -0.01
RRIRWRPPRLPRPRPRPKIVPRP | -0.272
RRIRVRPPRLPRPRPRPVHRPRP | 0.164

Sequence | shrunken log2 fold change
RRIRPRPPRLPRPRPRPTWHPRP | 0.316
RRIRARPPRLPRPRPRPLNVPRP | -0.234
RRIRVRPPRLPRPRPRPSLIPRP | -0.238
RRIRGRPPRLPRPRPRPCSEPRP | 0.0744
RRIRDRPPRLPRPRPRPQIWPRP | 0.352
RRIRFRPPRLPRPRPRPVQVPRP | -0.416
RRIRNRPPRLPRPRPRPFMHPRP | -0.142
RRIRTRPPRLPRPRPRPLVDPRP | -0.143
RRIRDRPPRLPRPRPRPHICPRP | -0.205
RRIRERPPRLPRPRPRPCLNPRP | -0.267
RRIRIRPPRLPRPRPRPKSWPRP | 0.327
RRIRLRPPRLPRPRPRPMREPRP | 1.25
RRIRPRPPRLPRPRPRPMNRPRP | -0.118
RRIRWRPPRLPRPRPRPFSYPRP | -0.203
RRIRCRPPRLPRPRPRPWTAPRP | -0.212
RRIRKRPPRLPRPRPRPPPIPRP | 0.748
RRIRIRPPRLPRPRPRPMASPRP | -0.00783
RRIRDRPPRLPRPRPRPAYMPRP | -0.342
RRIRWRPPRLPRPRPRPMARPRP | 0.00968
RRIRPRPPRLPRPRPRPCEHPRP | 0.099
RRIRYRPPRLPRPRPRPERIPRP | -0.21
RRIRCRPPRLPRPRPRPKQIPRP | 0.0104
RRIRDRPPRLPRPRPRPKQKPRP | 0.03
RRIRTRPPRLPRPRPRPTVKPRP | 3.07
RRIRGRPPRLPRPRPRPWRYPRP | 0.122

Sequence | shrunken log2 fold change
RRIRTRPPRLPRPRPRPCNTPRP | -0.21
RRIRYRPPRLPRPRPRPNLAPRP | -0.0223
RRIRVRPPRLPRPRPRPTQCPRP | -0.0227
RRIRVRPPRLPRPRPRPAIGPRP | 0.045
RRIRMRPPRLPRPRPRPKVPPRP | 0.882
RRIRGRPPRLPRPRPRPHFRPRP | 0.199
RRIRGRPPRLPRPRPRPKNRPRP | 0.368
RRIRVRPPRLPRPRPRPIAWPRP | 0.468
RRIRKRPPRLPRPRPRPNIFPRP | -0.021
RRIRIRPPRLPRPRPRPQHEPRP | -0.262
RRIRERPPRLPRPRPRPGPEPRP | 0.129
RRIRGRPPRLPRPRPRPVINPRP | 0.199
RRIRKRPPRLPRPRPRPENFPRP | -0.00264
RRIRIRPPRLPRPRPRPRAAPRP | 0.458
RRIRQRPPRLPRPRPRPPYGPRP | -0.408
RRIRRRPPRLPRPRPRPIRHPRP | 0.307
RRIRTRPPRLPRPRPRPGAFPRP | 2.41
RRIRMRPPRLPRPRPRPFGHPRP | -0.0287
RRIRSRPPRLPRPRPRPMISPRP | -0.453
RRIRSRPPRLPRPRPRPPSRPRP | 0.263
RRIRKRPPRLPRPRPRPEYVPRP | -0.00396
RRIRTRPPRLPRPRPRPPSPPRP | 0.236
RRIRDRPPRLPRPRPRPPCEPRP | 0.121
RRIRGRPPRLPRPRPRPTQNPRP | 0.972
RRIRHRPPRLPRPRPRPVAEPRP | 0.232

Sequence | shrunken log2 fold change
RRIRYRPPRLPRPRPRPFFSPRP | -0.77
RRIRGRPPRLPRPRPRPMLVPRP | 0.418
RRIRLRPPRLPRPRPRPNGEPRP | 0.00184
RRIRPRPPRLPRPRPRPRIHPRP | -0.00548
RRIRVRPPRLPRPRPRPRIFPRP | 0.137
RRIRSRPPRLPRPRPRPPVWPRP | 0.48
RRIRHRPPRLPRPRPRPTMLPRP | -0.468
RRIRRRPPRLPRPRPRPHSHPRP | -0.0882
RRIRTRPPRLPRPRPRPDSSPRP | -0.00751
RRIRSRPPRLPRPRPRPGYFPRP | -0.335
RRIRIRPPRLPRPRPRPVSPPRP | 0.188
RRIRCRPPRLPRPRPRPHAYPRP | -0.759
RRIRFRPPRLPRPRPRPWGPPRP | -0.106
RRIRDRPPRLPRPRPRPYRGPRP | -0.0122
RRIRIRPPRLPRPRPRPPFDPRP | -0.0876
RRIRQRPPRLPRPRPRPMFNPRP | -0.436
RRIRVRPPRLPRPRPRPSIPPRP | -0.52
RRIRKRPPRLPRPRPRPGWWPRP | 0.0245
RRIRKRPPRLPRPRPRPLWNPRP | 0.109
RRIRPRPPRLPRPRPRPLRTPRP | 0.831
RRIRIRPPRLPRPRPRPFWHPRP | -0.275
RRIRGRPPRLPRPRPRPWCHPRP | -0.0582
RRIRGRPPRLPRPRPRPPELPRP | 1.18
RRIRHRPPRLPRPRPRPNCDPRP | -0.264
RRIRVRPPRLPRPRPRPIFEPRP | 0.149

Sequence | shrunken log2 fold change
RRIRPRPPRLPRPRPRPPPAPRP | 2.01
RRIRTRPPRLPRPRPRPICMPRP | -0.348
RRIRPRPPRLPRPRPRPAKQPRP | 0.0651
RRIRIRPPRLPRPRPRPSHKPRP | -0.671
RRIRARPPRLPRPRPRPIVPPRP | 0.0453
RRIRARPPRLPRPRPRPWIKPRP | -0.0328
RRIRNRPPRLPRPRPRPYFWPRP | -0.0871
RRIRSRPPRLPRPRPRPRHRPRP | 0.121
RRIRSRPPRLPRPRPRPAFHPRP | -0.0038
RRIRFRPPRLPRPRPRPFPEPRP | -0.363
RRIRLRPPRLPRPRPRPYNGPRP | -0.103
RRIRSRPPRLPRPRPRPPEVPRP | 0.287
RRIRNRPPRLPRPRPRPVGAPRP | 0.0749
RRIRRRPPRLPRPRPRPPIMPRP | -0.0528
RRIRLRPPRLPRPRPRPINDPRP | -0.35
RRIRLRPPRLPRPRPRPKSHPRP | -0.261
RRIRKRPPRLPRPRPRPHKYPRP | -0.448
RRIRLRPPRLPRPRPRPHMHPRP | -0.578
RRIRARPPRLPRPRPRPRKKPRP | 0.404
RRIRRRPPRLPRPRPRPSSCPRP | 0.055
RRIRNRPPRLPRPRPRPLGAPRP | 0.413
RRIRERPPRLPRPRPRPEEGPRP | -0.007
RRIRIRPPRLPRPRPRPKLVPRP | 0.116
RRIRARPPRLPRPRPRPYMSPRP | 0.00296
RRIRMRPPRLPRPRPRPAPDPRP | 1.15
